# Reference: US20230002478A1
# B1: 6-63 (Fc fusion)
# chain: EVQLVESGGGLVQPGGSLRLSCAASGQTFNMGWFRQAPGKEREFVAAIGSGGSTSYADSVKGRFTISADNSKNTAYLQMNSLKPEDTAVYYCWRLGNDYFDYWGQGTLVTVSS
# Assays:
# [1] = target: SARS-CoV-2 S1-Fc (South Africa 178-08) (SARS-CoV-2), P0DTC2; experiment: SPR; conditions: remark: other sources report otherwise
# [2] = target: SARS-CoV-2 S Trimer (SARS-CoV-2), P0DTC2; experiment: SPR; conditions: remark: other sources report otherwise
binder,measurement,setting,value
B1,Kd,[1],26.8 nM
same,Kd,[2],0.68 nM
